Consider three substances from patent publication US20080305122A1.

Experiment [1] deals with PGCC(95-104) epitope peptide (Ac-…-NH2), pigeon cytochrome C (pigeon). Kind of experiment: ELISA, coated PGCC(95-104) peptide, control mouse serum, anti-mouse IgG1 or IgG2a detection. (In general: ELISA stands for enzyme-linked immunosorbent assay.)
The target of experiment [2] is HIV gp160(843-855) peptide (HIV). Briefly: ELISA, coated HIV gp160(843-855) peptide, control mouse serum, anti-mouse IgG1 or IgG2a detection.

In experiment [1], “Serum of mice given no immunogen (control of Table 22.2) (antibody)” showed an ELISA absorbance at 450 nm, serum dilution 1:20 (absorbance (450 nm)) of 0.042; an ELISA absorbance at 450 nm, serum dilution 1:60 (absorbance (450 nm)) of 0.004; an ELISA absorbance at 450 nm, serum dilution 1:180 (absorbance (450 nm)) of -0.003; an ELISA absorbance at 450 nm, serum dilution 1:540 (absorbance (450 nm)) of 0.007. In experiment [1], the ELISA absorbance at 450 nm, serum dilution 1:1620 (absorbance (450 nm)) turned out to be 0.006 and the ELISA absorbance at 450 nm, serum dilution 1:4860 (absorbance (450 nm)) was 0.005.

In experiment [1], “Serum of mice given no immunogen (control of Table 22.1) (antibody)” showed an ELISA absorbance at 450 nm, serum dilution 1:20 (absorbance (450 nm)) of 0.105; an ELISA absorbance at 450 nm, serum dilution 1:60 (absorbance (450 nm)) of 0.72; an ELISA absorbance at 450 nm, serum dilution 1:180 (absorbance (450 nm)) of 0.049; an ELISA absorbance at 450 nm, serum dilution 1:540 (absorbance (450 nm)) of 0.036.

For “Serum of mice given no immunogen (control of Table 22.3) (antibody)”, in experiment [2], the ELISA absorbance at 450 nm, serum dilution 1:20 (absorbance (450 nm)) came out at 0.084; the ELISA absorbance at 450 nm, serum dilution 1:60 (absorbance (450 nm)) came to 0.045; the ELISA absorbance at 450 nm, serum dilution 1:180 (absorbance (450 nm)) was 0.004; the ELISA absorbance at 450 nm, serum dilution 1:540 (absorbance (450 nm)) is -0.003.
